From patent publication US20200182882A1

Tests used:
[1] = biological target: T1, CD20 on a CD20 expressing target cell line (Wil2-S) (UniProt P11836); assay: cell-based or functional assay
T1 sequence (looked up): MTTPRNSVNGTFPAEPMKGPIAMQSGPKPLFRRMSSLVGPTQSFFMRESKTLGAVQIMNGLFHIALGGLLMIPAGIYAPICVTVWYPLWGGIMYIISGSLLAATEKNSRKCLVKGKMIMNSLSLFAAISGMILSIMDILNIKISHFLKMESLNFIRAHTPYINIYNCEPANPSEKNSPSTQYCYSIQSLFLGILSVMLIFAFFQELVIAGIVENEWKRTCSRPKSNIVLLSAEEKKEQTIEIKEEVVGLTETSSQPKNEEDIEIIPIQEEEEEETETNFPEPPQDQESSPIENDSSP

[2] = biological target: CD3 (TCR complex subunit) on T cells (Jurkat reporter cells; human PBMC T cells) (human) (UniProt P07766); assay: cell-based or functional assay
Sequence of UniProt P07766 (P07766 23-207, one chain of several): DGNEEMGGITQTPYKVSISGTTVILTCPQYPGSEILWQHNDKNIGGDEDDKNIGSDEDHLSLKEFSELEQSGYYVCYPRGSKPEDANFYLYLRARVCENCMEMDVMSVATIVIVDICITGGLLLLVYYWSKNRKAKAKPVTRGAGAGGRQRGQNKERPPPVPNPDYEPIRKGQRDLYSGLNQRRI

EC50 of T cell activation (CD69+/CD25+), Human PBMC Donor 1, in presence of target cells [1]: 5.5 ng/mL | EC50 of T cell activation (CD69+/CD25+), Human PBMC Donor 2, in presence of target cells [1]: 4.4 ng/mL | EC50 of luciferase reporter activity, Jurkat/NFκBLuc, in presence of target cells [1]: 1.3 ng/mL | EC50 of T cell activation (CD69+/CD25+), Human PBMC Donor 1, in presence of target cells [2]: 5.5 ng/mL | EC50 of T cell activation (CD69+/CD25+), Human PBMC Donor 2, in presence of target cells [2]: 4.4 ng/mL | EC50 of luciferase reporter activity, Jurkat/NFκBLuc, in presence of target cells [2]: 1.3 ng/mL | luciferase activity of Jurkat/NFκBLuciferase clone 2 in the presence of a CD20 expressing target cell line, against anti-CD3 homodimer [2]: 1000 fold
B1: αCD20/αCD3 TDB (bispecific antibody, from a related filing, V domains shown)
VH 1: EVQLVESGGGLVQPGGSLRLSCAASGYTFTSYNMHWVRQAPGKGLEWVGAIYPGNGDTSYNQKFKGRFTISVDKSKNTLYLQMNSLRAEDTAVYYCARVVYYSNSYWYFDVWGQGTLVTVSS
VL 1: DIQMTQSPSSLSASVGDRVTITCRASSSVSYMHWYQQKPGKAPKPLIYAPSNLASGVPSRFSGSGSGTDFTLTISSLQPEDFATYYCQQWSFNPPTFGQGTKVEIKR
VH 2: EVQLVQSGAEVKKPGASVKVSCKASGYTFTNYYIHWVRQAPGQGLEWIGWIYPGDGNTKYNEKFKGRATLTADTSTSTAYLELSSLRSEDTAVYYCARDSYSNYYFDYWGQGTLVTVSS
VL 2: DIVMTQSPDSLAVSLGERATINCKSSQSLLNSRTRKNYLAWYQQKPGQPPKLLIYWASTRESGVPDRFSGSGSGTDFTLTISSLQAEDVAVYYCTQSFILRTFGQGTKVEIK
